Five substances from publication PMC8960412 can be followed below.

One may read the Kd as the free concentration of one partner at which half of the binding sites on the other are occupied at equilibrium, for simple one-to-one binding. In general, koff refers to a measure of how fast the partners let go of each other. For orientation: kon means the rate constant with which the complex forms. For orientation: EC50 means the concentration needed to bring the measured effect to its halfway point. A high value points to a need for much substance.

Test [1] addresses isotype/huGITR-L-hIgG1-LALA (human). Description: SPR; Biacore T200; antibody constructs captured by goat anti-human H+L on a CM5 chip, recombinant human GITR-His as analyte; global 1:1 fit (Supplementary Table 3).
Test [2] addresses anti-huPD-1-huGITR-L bispecific (Anti-PD-1-GITR-L-hIgG1-LALA) (human) (UniProt Q9UNG2). Described as above.
The target is the same in test [3]. Put plainly: SPR; bispecific captured as in the human SPR, recombinant human or cynomolgus GITR-His as analyte; cross-species experiment (Supplementary Table 11). A general note: SPR reads the build-up and loss of mass on a sensor chip optically.
Test [4] deals with human GITR on transfected HEK293 cells (human) (UniProt Q9Y5U5). Description: flow cytometry on cells; human GITR-HEK293 cells incubated with a serial dilution of antibodies; detected with PE goat anti-human IgG F(ab')2. (In general: A flow cytometer gives signals particle by particle.)
Test [5] deals with anti-PD-1-hIgG1-LALA (human). Put plainly: SPR; Biacore T200; samples directly immobilised by amine coupling, human FcRn/β2m as analyte; running buffer pH 6.0.
Test [6] concerns the target isotype-hIgG1-LALA (human). The test is described as above.
The target in test [7] is isotype/huGITR-L-hIgG1-LALA (human). The test is described as above.
For test [8], the target named is anti-huPD-1-huGITR-L bispecific (Anti-PD-1-GITR-L-hIgG1-LALA) (human) (UniProt Q9UNG2). The test is described as above.
The target in test [9] is anti-PD-1-hIgG1-LALA (human). Description: SPR; as for human FcRn/β2m: samples immobilised, cyno FcRn/β2m as analyte; pH 6.0.
In test [10] the target is isotype-hIgG1-LALA (human). Described as above.
Test [11] has as its target isotype/huGITR-L-hIgG1-LALA (human). The test is described as above.
For test [12], the target named is anti-huPD-1-huGITR-L bispecific (Anti-PD-1-GITR-L-hIgG1-LALA) (human) (UniProt Q9UNG2). The test is described as above.

Sequence of anti-PD-1-hIgG1-LALA (human) (heavy, as listed by the source, chain 1 of 2): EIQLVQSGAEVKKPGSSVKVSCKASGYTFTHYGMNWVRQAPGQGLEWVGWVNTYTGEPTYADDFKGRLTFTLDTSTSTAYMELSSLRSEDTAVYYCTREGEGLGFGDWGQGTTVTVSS
Sequence of anti-PD-1-hIgG1-LALA (human) (light, as listed by the source, chain 2 of 2): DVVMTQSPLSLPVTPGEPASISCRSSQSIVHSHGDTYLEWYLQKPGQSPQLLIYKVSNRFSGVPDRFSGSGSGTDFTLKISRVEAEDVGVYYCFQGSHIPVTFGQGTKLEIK

Turning to “Hu GITR-His (recombinant extracellular domain of human GITR) (from UniProt Q9Y5U5 26-162) (domain or fragment)”, in test [1], the Kd turned out to be 0.015 µM, the koff was found to be 0.0016 s⁻¹ and the kon worked out at 110000 M⁻¹ s⁻¹. In [2], the Kd amounted to 0.016 µM, the koff worked out at 0.0017 s⁻¹ and the kon was determined as 110000 M⁻¹ s⁻¹. In [3], the Kd amounted to 0.0018 µM, the koff is 0.001 s⁻¹ and the kon was 560000 M⁻¹ s⁻¹.

As for isotype/huGITR-L-hIgG1-LALA, in test [4], the EC50 was determined as 0.0009 µM.

With “human FcRn/β2m heterodimer (from UniProt P55899 24-297; P61769 21-119) (complex)”, the Kd in test [5] worked out at 2.2 µM; in [6], 2 µM; in test [7], 2.4 µM; in test [8] it was 2.3 µM.

Turning to “cyno FcRn/β2m heterodimer (from UniProt Q8SPV9 24-365; Q8SPW0 21-119) (complex)”, the Kd in [9] was found to be 1.9 µM; in test [10], 1.7 µM; in test [11] it was 2.2 µM; in test [12] it was 2 µM.

With “Cyno GITR-His (recombinant extracellular domain of cynomolgus GITR) (domain or fragment)”, in test [3], the Kd is 0.00079 µM, the koff is 0.00087 s⁻¹ and the kon was 1.1e+06 M⁻¹ s⁻¹.
